Where two headings read alike, the source gives them in different places. Each block holds one binder with its values, some of them ahead of it.
Legend:
[1] = target: T1, human CD39 (Accession No. NM_001776.6) expressed on cells (human, UniProt P49961 1-510); test: flow cytometry, 293T/CD39 cells, KD from MFI
T1 construct: whole, on cells; On Jurkat, 293T or SK-MEL28 cells; also called Jurkat/CD39; 293T/CD39
T1 sequence (looked up): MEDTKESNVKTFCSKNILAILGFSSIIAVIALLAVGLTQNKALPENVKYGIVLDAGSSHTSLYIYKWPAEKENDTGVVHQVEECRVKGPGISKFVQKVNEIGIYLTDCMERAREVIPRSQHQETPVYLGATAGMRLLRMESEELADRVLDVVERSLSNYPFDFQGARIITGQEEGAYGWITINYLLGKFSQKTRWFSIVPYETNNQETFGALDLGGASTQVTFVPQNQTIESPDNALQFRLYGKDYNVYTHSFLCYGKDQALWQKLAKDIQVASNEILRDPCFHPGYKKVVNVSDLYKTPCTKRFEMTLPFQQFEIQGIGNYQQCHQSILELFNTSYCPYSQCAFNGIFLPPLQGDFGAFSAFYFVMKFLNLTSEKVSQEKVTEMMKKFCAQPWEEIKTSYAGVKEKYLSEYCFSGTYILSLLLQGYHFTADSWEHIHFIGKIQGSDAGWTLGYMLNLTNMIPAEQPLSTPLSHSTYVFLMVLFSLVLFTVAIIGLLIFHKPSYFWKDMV

[2] = target: T2, recombinant human CD39 (in-house product, 38 to 478 aa of Accession No. NM_001776.6) (human, UniProt P49961 38-478); test: SPR Biacore8K, antibody captured on anti-human IgG, antigen as analyte
T2 construct: also called rhCD39; human CD39-ECD; not shown: Myc and His tags at the C-terminus are named only for the PE-lab
T2 sequence (looked up): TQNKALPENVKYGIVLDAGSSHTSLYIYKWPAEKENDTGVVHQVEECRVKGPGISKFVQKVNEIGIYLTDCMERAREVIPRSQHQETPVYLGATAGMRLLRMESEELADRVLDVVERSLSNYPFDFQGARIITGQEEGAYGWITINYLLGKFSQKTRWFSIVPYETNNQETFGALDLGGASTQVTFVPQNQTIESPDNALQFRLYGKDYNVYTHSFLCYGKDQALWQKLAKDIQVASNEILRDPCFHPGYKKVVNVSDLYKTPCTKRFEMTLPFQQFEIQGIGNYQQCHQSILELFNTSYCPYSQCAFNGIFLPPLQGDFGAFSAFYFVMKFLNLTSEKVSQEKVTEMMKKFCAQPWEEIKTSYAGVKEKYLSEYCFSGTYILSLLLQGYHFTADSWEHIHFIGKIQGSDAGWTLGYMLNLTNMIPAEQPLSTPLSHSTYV

[3] = target: biotinylated human TIM-3-Fc antigen (in-house product, SEQ ID No: 118) (human, biotinylated); test: flow cytometry, inhibition of biotinylated TIM-3-Fc binding to phosphatidylserine on apoptotic Jurkat cells
[4] = target: T1, human CD39 (Accession No. NM_001776.6) …; test: flow cytometry, 293T/CD39 cells, KD from MFI; remark: listed apart in the source
[5] = target: T1, human CD39 (Accession No. NM_001776.6) …; test: flow cytometry, Jurkat/CD39 cells, KD from MFI
[6] = target: T1, human CD39 (Accession No. NM_001776.6) …; test: flow cytometry, 293T/TIM-3 + CD39 cells, KD from MFI
[7] = target: T1, human CD39 (Accession No. NM_001776.6) …; test: flow cytometry, Jurkat/TIM-3 + CD39 cells, KD from MFI
[8] = target: T2, recombinant human CD39 (in-house …); test: SPR Biacore8K, antibody captured on anti-human IgG, antigen as analyte; remark: listed apart in the source

B1: T86_Hu003_Fsc (bispecific antibody, not shown: a dimerising Fc or GST)
VH: QIQLVQSGPELKKPGETVKISCEASGYTFINYGMNWVKQAPGKGLKWMGWINTYTGEPTYADDFKGRFAFSLETSANTAYLQINNLKNEDTATYFCARKGYYGYPNYYAMDYWGQGTSVTVSS
VL: DIVMTQSQKFMSTSVGDRVSITCKASQNVGTAVAWYQQKPGQSPKLLIYSASNRYTGVPDRFTGSGSGTDFTLTISNMQSEDLADYFCQQYSSYPITFGTGTKLEIK
scFv: QVQLQESGGGLVKPGGSLKLSCAASGFTFSSYYMSWVRQTPDKRLEWVATISNSGGSTYYPDSVKDRFTISRDNAKNTLYLQMSSLKSEDTAMYYCARDPYYTNYVPMDYWGQGTMVTVSSGGGGSGGGGSGGGGSGGGGSDIVMTQSPSFLSASVGDRVTITCKASQYVDTYVAWYQQRPGKAPKPLIYSASTRHTGVPSRFSGSGSGTEFTLTISSLQPEDFATYFCAQYSSSPLTFGGGTKLELK
notes: Fab-scFv-Fc heterodimer: anti-CD39 Fab T86 (Knob)
Kd [1]: 9.19 nM
Kd [2]: 2.4 nM
IC50 [3]: 23.9 nM

B2: Tre291_Hu003_Fsc (bispecific antibody, not shown: a dimerising Fc or GST)
VH: QVQLKQSGPGLVQPSQSLSITCTVSGFSLTSYGVHWVRQSPGKGLEWLGVIWRRGSTDYNAAFMSRLSITKDTSKSQVFFKMNSLQTDDTAIYYCAGVRGDAMDYWGQGTSVTVSS
VL: DIVMTQSHKSMSTSVGDRVSVTCKASQNVGTNVAWYQQKPGQSPKALIYSASYRYSGVPDRFTGSGSGTDFTLTISNVQSEDLAEYFCQQYNSYPLTFGGGTKLEIK
scFv: B1 scFv
notes: Fab-scFv-Fc heterodimer: anti-CD39 Fab Tre291 (Knob)
Kd [1]: 25.4 nM
Kd [2]: 1.36 nM
IC50 [3]: 22.4 nM

B4: 6-3hIG_sc (antibody)
scFv: QVQLVQSGAELVKPGASVKLSCKASGFSIKDTYVHWVKQAPGKGLEWIGKIDPANVNTKFDPKFQGRVTITADTSTNTAYLQLSSLRSEDTAVYYCALYGYDDDAYYFDYWGQGTLVTVSSGGGGSGGGGSGGGGSGGGGSEIVLTQSPASLSVSPGERATISCRASESVDNYGISFMNWFQQKPGQAPKLLIYAASNQGSGVPARFSGSGSGTDFTLTISSLEPEDFAVYYCQQSKEVPYTFGQGTKLEIK
notes: scFv-Fc homodimer, anti-CD39; also called scFv-Fc homodimeric antibody of anti-CD39_scFv antibody (humanized) 6-3hIG; not shown: GGGG linker and Fc-LALA (human IgG1 Fc with L234A and L235A)
Kd [4]: 18.6 nM
Kd [5]: 42.1 nM
Kd [6]: 26.6 nM
Kd [7]: 33.6 nM
Kd [8]: 0.465 nM
koff [8]: 0.000187 s⁻¹
kon [8]: 402000 M⁻¹ s⁻¹

B6: I67_sc (antibody)
scFv: DVQLQESGPSLVQPSQSLSINCTVSGFSLSSYGVHWVRQSPGKGLEWLGVIWRRGSTDYNAAFMSRLSITKDNSKSQVFFKMNRLQADDTATYYCAKGISTATSWFAYWGQGTLVTVSAGGGGSGGGGSGGGGSGGGGSDIVMTQSHKFMSTSVGDRVSVTCKASQNVGTNVAWYQQKPGQSPKALIYSASYRYSGVPDRFTGSGSGTDFTLTISNVQSEDLAEYFCQQYNSYPLTFGAGTKLELK
notes: scFv-Fc homodimer, anti-CD39 (mouse variable regions); also called scFv-Fc homodimeric antibody of anti-CD39_scFv antibody I67; not shown: linker and Fc-LALA (human IgG1 Fc with L234A and L235A)
Kd [4]: 2.37 nM
Kd [5]: 0.329 nM
Kd [6]: 6.8 nM
Kd [7]: 0.208 nM
Kd [8]: 1.65 nM
koff [8]: 0.00294 s⁻¹
kon [8]: 1.78e+06 M⁻¹ s⁻¹

Further lines, results first:

Kd [4]: 2.43 nM
Kd [5]: 0.8 nM
Kd [6]: 7.15 nM
Kd [7]: 0.922 nM
Kd [8]: 2.22 nM
koff [8]: 0.0031 s⁻¹
kon [8]: 1.4e+06 M⁻¹ s⁻¹
B3: Tre_291_sc (antibody)
scFv: QVQLKQSGPGLVQPSQSLSITCTVSGFSLTSYGVHWVRQSPGKGLEWLGVIWRRGSTDYNAAFMSRLSITKDTSKSQVFFKMNSLQTDDTAIYYCAGVRGDAMDYWGQGTSVTVSSGGGGSGGGGSGGGGSGGGGSDIVMTQSHKSMSTSVGDRVSVTCKASQNVGTNVAWYQQKPGQSPKALIYSASYRYSGVPDRFTGSGSGTDFTLTISNVQSEDLAEYFCQQYNSYPLTFGGGTKLEIK
notes: scFv-Fc homodimer, anti-CD39 (mouse variable regions); not shown: linker and Fc-LALA (human IgG1 Fc with L234A and L235A)

Kd [4]: 2.19 nM
Kd [5]: 0.334 nM
Kd [6]: 5.5 nM
Kd [7]: 0.343 nM
Kd [8]: 4.75 nM
koff [8]: 0.00187 s⁻¹
kon [8]: 393000 M⁻¹ s⁻¹
B5: mAnE67_sc (antibody)
scFv: EVQLVESGGGLVKPGGSRKLSCAASGFTFSDYGMHWVRQAPEKGLEWVAYISSGSSIIYYADTVKGRFTISRDNAKNTLFLQMTGLRSEDTAMYYCARKDYPYAMDYWGQGTSLAVSSGGGGSGGGGSGGGGSGGGGSSIVMTQTPKFMSTSVGDRVSVTCKASQNVGTNVAWYQQKPGQSPKALIYWASNRFTGVPDRFTGSGSGTDFTLTISNVQSEDLADYFCQQYSSSPYTFGSGTKLEIK
notes: scFv-Fc homodimer, anti-CD39 (mouse variable regions); also called scFv-Fc homodimeric antibody of anti-CD39_scFv antibody mAnE67; not shown: linker and Fc-LALA (human IgG1 Fc with L234A and L235A)
